B1: Twister Ribozyme (parent)
chain: AACACUGCCAAUGCCGGUCCCAAGCCCGGAUAAAAGUGGAGGGGGCGG

Variants of: B1
Test: self-cleavage, relative activity (ratio to wild type); higher = more cleavage; co-transcriptional

Going from A4C G13U to C3U C20U, the self-cleavage rises from 0.072 to 0.308.

First: C3A G47A
Second: C3A G47U
The self-cleavage of the first is higher: 0.245 for the first, 0.229 for the second.

Going from A4C G24A to A4C G24C, the self-cleavage falls from 0.0887 to 0.078.

Compared with A4C G24U, A4G G42C is higher in self-cleavage: 0.0584 for the first, 0.186 for the second.

First: A4C G39A
Second: A4G A33G
The self-cleavage of the first is lower: 0.101 for the first, 0.941 for the second.

First: A4G A33C
Second: A4G G41U
The self-cleavage of the first is higher: 0.721 for the first, 0.405 for the second.

Going from A4G G7U to A4G G39A, the self-cleavage rises from 0.052 to 0.322.

Going from A4G C8G to A4C C14G, the self-cleavage falls from 0.289 to 0.0948.

First: A4C C9A
Second: A4G A34G
The self-cleavage of the first is lower: 0.114 for the first, 0.61 for the second.

Going from A4C C8G to C3U U6C, the self-cleavage rises from 0.071 to 0.0788.

First: C3U U6A
Second: A4C A30U
The self-cleavage of the first is lower: 0.144 for the first, 0.189 for the second.

Going from A4C A30G to A4C U6A, the self-cleavage falls from 0.163 to 0.0472.

Compared with A4C A34C, A4C A10U is higher in self-cleavage: 0.0803 for the first, 0.203 for the second.

Going from A4C U37A to A4C U37C, the self-cleavage falls from 0.766 to 0.122.

Compared with A4C U37G, A4G A11G is higher in self-cleavage: 0.623 for the first, 0.96 for the second.

Compared with C3A C46A, C3A C46U is higher in self-cleavage: 0.2 for the first, 0.244 for the second.

Going from C3A C46G to C3A C19G, the self-cleavage falls from 0.117 to 0.0471.

Compared with C3U G41U, C3U G13C is higher in self-cleavage: 0.14 for the first, 0.168 for the second.

First: C3U G13U
Second: C3U C46A
The self-cleavage of the first is lower: 0.113 for the first, 0.338 for the second.

Going from A4G C14G to A4G C14A, the self-cleavage rises from 0.276 to 0.76.

Going from A4G C14U to C3U A35C, the self-cleavage falls from 0.957 to 0.493.

First: C3U A35U
Second: A4C G41U
The self-cleavage of the first is higher: 0.421 for the first, 0.0895 for the second.

Going from A4C G41C to A4G U6G, the self-cleavage falls from 0.0877 to 0.074.

Compared with A4G U6A, C3G G36C is lower in self-cleavage: 0.866 for the first, 0.0943 for the second.

Compared with C3G G39C, C3G G39U is higher in self-cleavage: 0.0914 for the first, 0.107 for the second.

First: C3G G39A
Second: A4C C19A
The self-cleavage of the first is higher: 0.0984 for the first, 0.0783 for the second.

First: A4C C19G
Second: A4C C19U
The self-cleavage of the first is lower: 0.0582 for the first, 0.0705 for the second.

Compared with A4G C46A, C3U G42C is lower in self-cleavage: 0.785 for the first, 0.159 for the second.

First: C3U G24C
Second: C3U G24U
The self-cleavage of the first is lower: 0.0842 for the first, 0.0933 for the second.

First: A4G C9U
Second: A4G C9G
The self-cleavage of the first is lower: 0.549 for the first, 0.601 for the second.

Compared with C3U U12A, C3U U12G is lower in self-cleavage: 0.41 for the first, 0.391 for the second.

Going from C3U U12C to C3A G48C, the self-cleavage falls from 0.39 to 0.251.

First: C3G A30C
Second: C3G A22C
The self-cleavage of the first is lower: 0.167 for the first, 0.481 for the second.

Going from C3G A22G to C3G A10G, the self-cleavage rises from 0.124 to 0.872.

First: C3G G45U
Second: A4C C25U
The self-cleavage of the first is higher: 0.31 for the first, 0.058 for the second.

Going from C3G G13A to C3G G13C, the self-cleavage falls from 0.138 to 0.124.

Going from C3G G44A to A4G A32C, the self-cleavage rises from 0.509 to 0.719.

Going from A4G A32U to A4G G29A, the self-cleavage falls from 0.945 to 0.819.

Going from C3A U6C to C3A U6G, the self-cleavage rises from 0.0414 to 0.121.

Going from C3G C19A to C3U G45A, the self-cleavage rises from 0.0808 to 0.422.

Compared with C3U G45C, C3U G45U is higher in self-cleavage: 0.179 for the first, 0.338 for the second.

First: A4G G28U
Second: A4G G28A
The self-cleavage of the first is higher: 0.644 for the first, 0.58 for the second.

First: C3G A35G
Second: C3G A35U
The self-cleavage of the first is lower: 0.317 for the first, 0.488 for the second.

First: A4G A10G
Second: A4G A10C
The self-cleavage of the first is higher: 0.892 for the first, 0.762 for the second.

Going from C3U C9U to A4C A32U, the self-cleavage falls from 0.253 to 0.159.

Compared with A4C A32G, C3G A40C is lower in self-cleavage: 0.146 for the first, 0.12 for the second.

Compared with C3G A40U, C3U G48A is higher in self-cleavage: 0.113 for the first, 0.381 for the second.

First: C3U G48C
Second: C3U C21A
The self-cleavage of the first is higher: 0.484 for the first, 0.0567 for the second.

First: C3U C21G
Second: A4G G45A
The self-cleavage of the first is lower: 0.221 for the first, 0.955 for the second.

Compared with C3A G44U, C3A G44C is lower in self-cleavage: 0.253 for the first, 0.207 for the second.

Compared with A4C G42C, A4C G42U is lower in self-cleavage: 0.125 for the first, 0.0422 for the second.

Going from A4C G43U to A4C G43A, the self-cleavage falls from 0.103 to 0.0357.

Compared with C3A C15A, C3A C15U is higher in self-cleavage: 0.101 for the first, 0.108 for the second.

Compared with C3A C15G, C3G G29A is higher in self-cleavage: 0.0656 for the first, 0.348 for the second.

First: C3U G28C
Second: C3U G28A
The self-cleavage of the first is lower: 0.167 for the first, 0.409 for the second.

Going from A4G A30G to A4G C21A, the self-cleavage falls from 0.81 to 0.0832.

Going from A4G C21G to C3G G47C, the self-cleavage rises from 0.0683 to 0.149.

First: C3A G39A
Second: C3A G39U
The self-cleavage of the first is lower: 0.0266 for the first, 0.0737 for the second.

Going from A4C C27G to C3A A32U, the self-cleavage rises from 0.0637 to 0.278.

First: C3A A32G
Second: C3A A32C
The self-cleavage of the first is lower: 0.0493 for the first, 0.188 for the second.

First: C3G A32C
Second: C3G A32U
The self-cleavage of the first is lower: 0.379 for the first, 0.593 for the second.

Going from C3U U37A to C3G G43C, the self-cleavage falls from 0.533 to 0.101.

First: C3G G43A
Second: C3G G43U
The self-cleavage of the first is lower: 0.12 for the first, 0.124 for the second.

Going from C3U C15A to C3G A33U, the self-cleavage rises from 0.195 to 0.526.

Compared with C3G C25A, A4G G36C is higher in self-cleavage: 0.0782 for the first, 0.182 for the second.

Compared with A4G G36U, A4G G13A is higher in self-cleavage: 0.164 for the first, 0.563 for the second.

Compared with A4G, A4C is lower in self-cleavage: 1 for the first, 0.218 for the second.

Compared with C3U G39C, C3U G39A is higher in self-cleavage: 0.0856 for the first, 0.146 for the second.

First: A4C C26G
Second: A4C C26U
The self-cleavage of the first is higher: 0.103 for the first, 0.0418 for the second.

Going from C3U G47A to C3U G47U, the self-cleavage rises from 0.361 to 0.513.

Going from C3G C5U to C3G C5G, the self-cleavage falls from 0.309 to 0.101.

First: C3G C5A
Second: C3U G36U
The self-cleavage of the first is higher: 0.117 for the first, 0.064 for the second.

Compared with C3U G36C, C3G U6A is higher in self-cleavage: 0.0744 for the first, 0.13 for the second.

First: C3G U6C
Second: C3G U6G
The self-cleavage of the first is higher: 0.0367 for the first, 0.015 for the second.

Compared with A4G G48U, C3G U31A is lower in self-cleavage: 0.979 for the first, 0.57 for the second.

Going from C3G U31C to C3U A11U, the self-cleavage rises from 0.347 to 0.428.

First: C3U A11C
Second: C3U A11G
The self-cleavage of the first is lower: 0.191 for the first, 0.438 for the second.

Compared with C3G A11U, A4C A11G is lower in self-cleavage: 0.762 for the first, 0.193 for the second.

Going from A4C G28A to C3G C26G, the self-cleavage falls from 0.12 to 0.0704.

Going from A4C U31C to C3U A30U, the self-cleavage rises from 0.249 to 0.397.

First: A4G U31A
Second: A4G U31C
The self-cleavage of the first is lower: 0.604 for the first, 0.886 for the second.

First: A4G U31G
Second: C3G G41U
The self-cleavage of the first is higher: 0.759 for the first, 0.142 for the second.

First: C3U G16U
Second: C3U G16C
The self-cleavage of the first is higher: 0.183 for the first, 0.163 for the second.

For C3U G16A, the self-cleavage was 0.248.

— the RNAGym collection of RNA variant scans (doi:10.7554/elife.80360)
